The values below come from article PMC10360156.

The target of test [1] is four maltose binding proteins arranged in tandem (4MBP).
Test [2] shares this target. The source holds these as a separate data set.
Test [3] has the same target. This is another data set of the same source.

B1: human small heat shock protein HSPB8 (wild type) (natural protein)
chain: MADGQMPFSCHYPSRLRRDPFRDSPLSSRLLDDGFGMDPFPDDLTASWPDWALPRLSSAWPGTLRSGMVPRGPTATARFGVPAEGRTPPPFPGEPWKVCVNVHSFKPEELMVKTKDGYVEVSGKHEEKQQEGGIVSKNFTKKIQLPAEVDPVTVFASLSPEGLLIIEAPQVPPYSTFGESSFNNELPQDSQEVTCT
Regarding B1, the no. of weak aggregates of 4MBP per trace with 5 μM HSPB8 (No HSPB8: 1.16) (aggregates per trace) in test [1] was determined as 0.64. In test [2], this molecule showed a percentage of residues of 4MBP forming weak aggregates after unfolding and 5 s relaxation at 0 pN, with 5 μM HSPB8 (40% in the absence of chaperone) of 19%; a percentage of residues of 4MBP in tight aggregates (not unfolded at 63 pN) after unfolding and relaxation, with 5 μM HSPB8 of under 2%.

B2: HSPB8-K141E, pathogenic mutant of human HSPB8 (natural protein)
chain: MADGQMPFSCHYPSRLRRDPFRDSPLSSRLLDDGFGMDPFPDDLTASWPDWALPRLSSAWPGTLRSGMVPRGPTATARFGVPAEGRTPPPFPGEPWKVCVNVHSFKPEELMVKTKDGYVEVSGKHEEKQQEGGIVSKNFTEKIQLPAEVDPVTVFASLSPEGLLIIEAPQVPPYSTFGESSFNNELPQDSQEVTCT
As to B2, in test [1], the no. of weak aggregates of 4MBP per trace with 5 μM HSPB8-K141E (No HSPB8: 1.16) (aggregates per trace) stood at 0.85. In test [3], this molecule had a percentage of residues of 4MBP forming weak aggregates after unfolding and relaxation, with 5 μM HSPB8-K141E (19% for wild-type HSPB8; 40% in the absence of chaperone) of 31%.
